Measured values reported in patent US8313778B2, “Drug-delivery systems” (Evonik Roehm GmbH, priority 2005, dated 2012).
carboxyfluorescein = carboxyfluorescein label (N-terminal); fluorescein = fluorescein label

Assays:
HeLa cells [1] = assay type: cell-based, human; conditions: flow cytometry (FIG. 5)
Procedure: Cells and reagents: The human HeLa carcinoma cells used are derived from the American Type Culture Collection (Manassas, Va., USA). HeLa cells were cultured in RPMI 1640 medium with stabilized glutamine and 2.0 g/l NaHCO3 (PAN Biotech, Aidenbach, Germany) and with 10% foetal calf serum (PAN Biotech). Chlorbromazine was purchased from (Calbiochem (Bad Soden, Germany), 5-(N-ethyl-N-isopropyl)amiloride (EIPA), methyl-β-cyclodextrin (MβCD) and MTT [3-(4,5-dimethylthiazol-2-yl)-2,5-diphenyltetrazolium bromide] was purchased from Sigma (Deisenhofen, Germany).
Peptides: The peptides used were synthesized by EMC microcollections (Tübingen, Germany). The purity of all the peptides was checked by analytical HPLC. […]
Stock solution of the peptides: The peptides were taken up in DMSO to result in a 10 mM solution. […] This took place by UV/VIS spectrometry with a 1:100 dilution of the stock solution with 0.1M Tris/HCl buffer (pH 8.8), the absorption at 492 nm was measured, and carboxyfluorescein was assumed to have an extinction coefficient of 75 000 l/(mol·cm). […]
The peptides derived from human or bovine lactoferrin were prepared by solid-phase peptide synthesis. […] In order to determine whether the derived lactoferrin peptides have an activity as cell-penetrating peptides, the cell-associated fluorescence of the HeLa cells incubated with bLF peptides or hLF peptides was determined by flow cytometry. […]

HeLa cells [2] = assay: Cytotoxicity of hLF peptide, MTT test; assay type: cell-based, human; conditions: for ability of the cells to survive (MTT test): HeLa cells
Procedure: However, relatively short incubation times of less than one hour were used when observing peptide uptake in live cells. In addition, therefore, the effect of longer incubation times and higher concentrations of the peptides on the ability of the cells to survive was tested. HeLa cells were for this purpose incubated with hLF peptide at a concentration of 1.25 μM to 160 μm for 0.5 or 6 h. The vitality of the cells was then determined with an MTT test.

Substance | uptake relative to the amount taken up of hLF peptide (HeLa cells [1]) | cytotoxic effects (MTT test) (HeLa cells [2]; HeLa cells incubated for only 30 min, up to a concentration of 40 μM (FIG. 6)) | ability of the cells to survive (MTT test) (HeLa cells [2]; concentrations above 40 μM (FIG. 6)) | ability of the cells to survive (MTT test) (HeLa cells [2]; peptide concentration of 5 μM, after 6 h (FIG. 6))
Fluo-FQWQRNMRKVR-CONH2 (fluorescein-FQWQRNMRKVR-NH2; listed as Homo sapiens) [LF2] | one-tenth |  |  | 
Fluo-KCFQWQRNMRKVRGPPVSCIKR-CONH2 (carboxyfluorescein-KCFQWQRNMRKVRGPPVSCIKR-NH2; cysteine pairing not given here; listed as Homo sapiens) [hLF peptide] |  | No cytotoxic effects | killed | slightly reduced
Fluo-FQWQRNMRKVRGPPVS-CONH2 (fluorescein-FQWQRNMRKVRGPPVS-NH2; listed as Homo sapiens) [LF1] | one-tenth |  |  | 
